This note sets out measurements from US6475744 (GENERAL HOSPITAL CORPORATION A MASSACHUSETTS, dated 2002).

In this test the target is T1, βgalactosidase (UniProt P00722 1-1024 = β-galactosidase, limits assumed).
T1 construct: Construct not described; also called specificity control
Briefly: co-immunoprecipitation from co-transfected COS7 cells, anti-HA IP.

T1 sequence (P00722 whole entry): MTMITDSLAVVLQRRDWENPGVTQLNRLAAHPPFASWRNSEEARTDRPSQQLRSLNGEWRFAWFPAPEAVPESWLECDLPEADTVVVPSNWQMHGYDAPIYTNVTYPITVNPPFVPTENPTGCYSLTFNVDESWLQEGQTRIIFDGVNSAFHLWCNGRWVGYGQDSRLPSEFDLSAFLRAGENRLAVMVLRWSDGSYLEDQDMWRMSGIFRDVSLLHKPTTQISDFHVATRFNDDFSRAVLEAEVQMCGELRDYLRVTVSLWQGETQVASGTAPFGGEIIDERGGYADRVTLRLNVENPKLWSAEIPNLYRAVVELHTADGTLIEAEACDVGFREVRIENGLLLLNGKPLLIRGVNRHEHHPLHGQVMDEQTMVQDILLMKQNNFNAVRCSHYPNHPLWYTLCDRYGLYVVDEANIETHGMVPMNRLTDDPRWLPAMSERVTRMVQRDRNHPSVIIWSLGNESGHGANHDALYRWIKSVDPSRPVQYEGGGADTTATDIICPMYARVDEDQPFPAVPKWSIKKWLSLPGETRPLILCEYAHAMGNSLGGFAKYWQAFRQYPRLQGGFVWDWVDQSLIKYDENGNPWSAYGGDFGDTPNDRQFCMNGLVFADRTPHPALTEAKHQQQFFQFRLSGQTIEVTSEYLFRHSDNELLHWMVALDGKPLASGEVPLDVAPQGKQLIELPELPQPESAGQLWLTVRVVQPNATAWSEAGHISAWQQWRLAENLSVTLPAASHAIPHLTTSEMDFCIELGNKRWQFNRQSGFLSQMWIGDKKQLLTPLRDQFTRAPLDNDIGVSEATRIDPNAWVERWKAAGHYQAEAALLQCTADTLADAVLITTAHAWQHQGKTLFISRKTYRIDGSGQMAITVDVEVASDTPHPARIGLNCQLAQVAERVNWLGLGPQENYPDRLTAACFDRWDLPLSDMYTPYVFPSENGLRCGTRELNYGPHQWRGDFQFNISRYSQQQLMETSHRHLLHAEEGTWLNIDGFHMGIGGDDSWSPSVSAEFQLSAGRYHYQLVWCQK

B1: mCRY1-HA (other, mouse, UniProt P97784 1-606, looked up, not shown: small tags and cut ends)
chain: MGVNAVHWFRKGLRLHDNPALKECIQGADTIRCVYILDPWFAGSSNVGINRWRFLLQCLEDLDANLRKLNSRLFVIRGQPADVFPRLFKEWNITKLSIEYDSEPFGKERDAAIKKLATEAGVEVIVRISHTLYDLDKIIELNGGQPPLTYKRFQTLVSKMEPLEMPADTITSDVIGKCMTPLSDDHDEKYGVPSLEELGFDTDGLSSAVWPGGETEALTRLERHLERKAWVANFERPRMNANSLLASPTGLSPYLRFGCLSCRLFYFKLTDLYKKVKKNSSPPLSLYGQLLWREFFYTAATNNPRFDKMEGNPICVQIPWDKNPEALAKWAEGRTGFPWIDAIMTQLRQEGWIHHLARHAVACFLTRGDLWISWEEGMKVFEELLLDADWSINAGSWMWLSCSSFFQQFFHCYCPVGFGRRTDPNGDYIRRYLPVLRGFPAKYIYDPWNAPEGIQKVAKCLIGVNYPKPMVNHAEASRLNIERMKQIYQQLSRYRGLGLLASVPSNSNGNGGLMGYAPGENVPSCSSSGNGGLMGYAPGENVPSCSGGNCSQGSGILHYAHGDSQQTHSLKQGRSSAGTGLSSGKRPSQEEDAQSVGPKVQRQSSN
B1: the binding result was “no binding”.
